Kd data for 1 molecule are collected here from patent US20230333112 (published 2023).

The test addresses T1, human NKp30 (BKM0179) (human, UniProt O14931).
T1 chain: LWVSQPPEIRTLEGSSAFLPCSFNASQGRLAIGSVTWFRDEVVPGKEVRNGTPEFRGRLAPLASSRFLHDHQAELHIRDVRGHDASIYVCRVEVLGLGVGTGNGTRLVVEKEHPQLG
Kind of test: SPR. (In general: In SPR one partner is held on a chip, and binding of the other changes the refractive index at the surface.)

B1: BJM1078 (BJM0407 parental) (antibody, V domains shown)
VH: EIQLLESGGGLVQPGGSLRLSCAVSGFSITTTGYHWNWVRQAPGKGLEWVGYIYSSGSTSYNPSLKSRFTISRDTSKNTFYLQMNSLRAEDTAVYYCARGDWHYFDYWGQGTMVTVSS
VL: QSVTTQPPSVSGAPGQRVTISCSGEKLSDKYVHWYQQLPGTAPKMLIYENDRRPSGVPDRFSGSNSGNSASLAITGLQAEDEADYFCQFWDSTNSAVFGGGTQLTVL
The term Kd denotes the free concentration of one partner at which half of the binding sites on the other are occupied at equilibrium, for simple one-to-one binding. B1 displayed a Kd of 1.48 nM.
